Consider 1 molecule from PMC10704371.

The assay concerns the target T1, N-terminal DNA-binding domain (2-241) of S. pombe Fep1, 6xHis-tagged (S. pombe) (UniProt Q10134).
T1 sequence: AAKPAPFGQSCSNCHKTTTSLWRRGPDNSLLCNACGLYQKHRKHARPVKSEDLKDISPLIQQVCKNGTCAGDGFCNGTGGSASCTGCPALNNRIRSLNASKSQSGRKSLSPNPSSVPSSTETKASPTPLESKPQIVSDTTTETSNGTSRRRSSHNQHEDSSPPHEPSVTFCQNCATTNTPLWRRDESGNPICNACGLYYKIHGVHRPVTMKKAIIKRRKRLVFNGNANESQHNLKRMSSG

B1: Schizosaccharomyces pombe monothiol glutaredoxin Grx4, full length, 6xHis-tagged (natural protein)
chain: MSVEITFVEQFQEILQNGKEQIILLNFYAPWAAPCKQMNQVFDQFAKDTKNAVFLKIEAEKFSDIAESFDVNAVPLFVLIHGAKVLARISGANPQKLKAAIDEYIQPLISQISSTNASVETQVNSVQTTNTTSNTSKAPNGLDSELNERLSTLTNAHNVMLFLKGTPSEPACGFSRKLVGLLREQNVQYGFFNILADDSVRQGLKVFSDWPTFPQLYIKGEFVGGLDIVSEMIENGELQEMLPN
As to B1, the Kex of [2Fe-2S] cluster transfer from [2Fe-2S],Zn-Fep1-DBD to apo-Grx4 (CD-monitored titration, 5 mM GSH) came to 5.3 and the Kex of [2Fe-2S] cluster transfer from [2Fe-2S],Zn-Fep1-DBD to apo-Grx4 added as a 1:1 mixture with apo-Fra2 (CD-monitored titration, 5 mM GSH) turned out to be 36.1.
